Results published in US20250288697A1.
Where two headings read alike, the source gives them in different places.

Legend:
[1] = biological target: recombinant mouse TNFα (mouse) (UniProt P06804)
[2] = biological target: recombinant mouse TNFα (mouse) (UniProt P06804); remark: listed apart in the source

Chain of UniProt P06804 (P06804 80-235 limits assumed): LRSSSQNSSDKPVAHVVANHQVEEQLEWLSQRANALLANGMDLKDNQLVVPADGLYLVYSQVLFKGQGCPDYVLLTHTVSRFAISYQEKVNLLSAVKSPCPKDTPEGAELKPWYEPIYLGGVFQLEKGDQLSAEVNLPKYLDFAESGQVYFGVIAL

IC50 (read off the curve); HEK-Blue TNFα reporter (SEAP), % TNFα activity [1]: 0.5 µg/mL | IC50 (read off the curve); HEK-Blue TNFα reporter (SEAP), % TNFα activity [2]: 0.9 µg/mL
Substance: TNFR2-Fc (etanercept), vectorized (Fc fusion)
